Data reported in patent US20110306057A1 (Dana-Farber, published 2011).

What was measured:
[1] = molecular target: T1, wild type (WT) FLAG epitope-tagged version of PP2A Aβ (UniProt P30154 1-601); assay: anti-FLAG (M2) co-IP from 293T cells, RalA immunoblot
T1 construct: also called wtPP2A Aβ; FLAG-tagged Aβ

[2] = molecular target: T2, FLAG-epitope tagged PP2A Aα (UniProt P30153 1-589); assay: as above
T2 construct: also called wtPP2A Aα; FLAG-tagged Aα

[3] = molecular target: T3, cancer-derived FLAG-tagged PP2A Aβ mutant G8R (UniProt P30154 1-601); assay: anti-FLAG (M2) co-IP from HEK TER cells, RalA immunoblot
T3 construct: Overexpressed in HEK TER cells; the shRNA-resistant form carries silent substitutions only; also called G8R Aβ mutant
T3 sequence (P30154 other isoform, or with tags, fused parts or gaps limits assumed, stated change not applied): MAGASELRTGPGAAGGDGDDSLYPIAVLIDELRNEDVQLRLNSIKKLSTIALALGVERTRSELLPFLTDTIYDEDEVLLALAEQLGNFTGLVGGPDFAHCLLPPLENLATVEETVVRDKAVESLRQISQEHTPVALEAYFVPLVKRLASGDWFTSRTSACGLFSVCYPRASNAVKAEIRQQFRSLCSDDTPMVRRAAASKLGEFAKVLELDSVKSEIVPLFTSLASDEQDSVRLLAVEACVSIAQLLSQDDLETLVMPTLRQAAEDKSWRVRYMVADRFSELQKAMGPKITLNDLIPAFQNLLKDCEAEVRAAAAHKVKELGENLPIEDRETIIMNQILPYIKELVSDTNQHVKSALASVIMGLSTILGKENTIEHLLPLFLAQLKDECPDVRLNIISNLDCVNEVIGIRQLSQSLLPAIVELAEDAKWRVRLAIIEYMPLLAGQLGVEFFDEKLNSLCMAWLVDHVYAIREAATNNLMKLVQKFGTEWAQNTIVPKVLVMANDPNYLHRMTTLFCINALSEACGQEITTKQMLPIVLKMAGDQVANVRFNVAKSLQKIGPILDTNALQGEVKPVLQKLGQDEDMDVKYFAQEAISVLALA

[4] = molecular target: T4, cancer-derived FLAG-tagged PP2A Aβ mutant V448A (UniProt P30154 1-601); assay: as above
T4 construct: Overexpressed in HEK TER cells
T4 sequence (P30154 whole entry V448A): as the sequence (P30154 other isoform, or with tags, fused parts or gaps limits assumed, stated change not applied) above, with R8G, V448A counted along it

T1 sequence (P30154 whole entry): as the sequence (P30154 other isoform, or with tags, fused parts or gaps limits assumed, stated change not applied) above, with R8G counted along it
T2 sequence (P30153 whole entry): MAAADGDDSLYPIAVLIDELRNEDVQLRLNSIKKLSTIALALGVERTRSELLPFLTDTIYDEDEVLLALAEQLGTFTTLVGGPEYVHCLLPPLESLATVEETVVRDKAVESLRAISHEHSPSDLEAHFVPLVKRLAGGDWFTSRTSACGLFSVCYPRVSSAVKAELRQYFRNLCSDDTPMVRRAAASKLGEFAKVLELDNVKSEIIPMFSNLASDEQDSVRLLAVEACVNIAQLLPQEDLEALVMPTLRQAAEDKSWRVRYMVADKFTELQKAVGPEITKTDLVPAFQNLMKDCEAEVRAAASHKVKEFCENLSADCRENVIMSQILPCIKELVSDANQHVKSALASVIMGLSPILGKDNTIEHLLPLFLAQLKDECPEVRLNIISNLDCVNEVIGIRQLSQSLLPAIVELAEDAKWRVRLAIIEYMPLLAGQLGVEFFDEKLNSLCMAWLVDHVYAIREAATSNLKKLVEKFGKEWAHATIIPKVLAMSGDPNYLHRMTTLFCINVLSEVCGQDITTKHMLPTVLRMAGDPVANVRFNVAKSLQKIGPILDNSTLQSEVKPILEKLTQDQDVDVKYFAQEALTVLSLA

B1: endogenous RalA (enzyme)
chain: MAANKPKGQNSLALHKVIMVGSGGVGKSALTLQFMYDEFVEDYEPTKADSYRKKVVLDGEEVQIDILDTAGQEDYAAIRDNYFRSGEGFLCVFSITEMESFAATADFREQILRVKEDENVPFLLVGNKSDLEDKRQVSVEEAKNRAEQWNVNYVETSAKTRANVDKVFFDLMREIRARKMEDSKEKNGKKKRKSLAKRIRERC
notes: Endogenous protein in cell lysates; also called small GTPase RalA
B1: binds [1]; no binding [2]; no binding [3]. B1: no binding [4].
